{"source": "paper PMC9271601", "about": "(Structure (London, England : 1993), 2022)", "key": {"H7 (SH13) HA probe": {"target": "H7 (SH13) HA probe (Influenza A virus A/Shanghai/02/2013 …, UniProt R4NN21, strain, biotin (biotin protein ligase, AviTag))", "assay": "flow cytometry on cells"}, "[1]": {"target": "H9N2 A/Hong Kong/1073/99 hemagglutinin trimer, wild type (Influenza A virus A/Hong Kong/1073/99 …, UniProt Q9ICY5, strain)", "assay": "BLI"}}, "data": [{"binder": "1D12 B cell receptor on the donor's B cell (antibody, V domains shown) VH: QLVQSGAEVKKPGASVKVSCKASGYTFTGYYLHWVRQAPGQGLEWMGRINPDTGGTNYAQKFQGRVSMTRDMSISTHYMELSRLTSDDTAVYYCATKRGAVTAMVYYYFYGMDVWGQGTTVTVSS VL: DIVMTQSPLSLSVTPGEPASISCRSSHSLLHLNGYNYLDWYLQKPGQSPQLLIYLGSNRASGVPDRFSGSGSGTDFTLKISRVEAEDVGIYYCMQALRTPPGLTFGGGTKVDIK", "values": [{"measurement": "binding result", "setting": "H7 (SH13) HA probe", "value": "binds"}]}, {"binder": "315–19-1D12 Fab (Fab, V domains shown) VH: QLVQSGAEVKKPGASVKVSCKASGYTFTGYYLHWVRQAPGQGLEWMGRINPDTGGTNYAQKFQGRVSMTRDMSISTHYMELSRLTSDDTAVYYCATKRGAVTAMVYYYFYGMDVWGQGTTVTVSS VL: DIVMTQSPLSLSVTPGEPASISCRSSHSLLHLNGYNYLDWYLQKPGQSPQLLIYLGSNRASGVPDRFSGSGSGTDFTLKISRVEAEDVGIYYCMQALRTPPGLTFGGGTKVDIK", "values": [{"measurement": "binding result", "setting": "[1]", "value": "binds"}]}]}
